Assay results as given in US20250186594A1 (BRIGHT PEAK THERAPEUTICS, published 2025).

How the values were obtained:
[1] = target: T1, IL-18Rα/β heterodimer (Fc fused human IL-18Rα mixed with Fc fused human IL-18Rβ) (human, UniProt Q13478 19-329; O95256 20-356, limits assumed); experiment: SPR, Fc-IL-18Rα/β captured, heterogeneous ligand fit
T1 construct: Alpha and beta Fc fusions were mixed and pre-incubated for 30 min before capture on anti-human IgG; also called alpha/beta heterodimer IL-18 receptor; heterodimeric human IL-18 receptor alpha (CD218a) and IL-18R accessory protein (IL-18RAP/CDw218b); not shown: Fc
T1 sequence (looked up) 1: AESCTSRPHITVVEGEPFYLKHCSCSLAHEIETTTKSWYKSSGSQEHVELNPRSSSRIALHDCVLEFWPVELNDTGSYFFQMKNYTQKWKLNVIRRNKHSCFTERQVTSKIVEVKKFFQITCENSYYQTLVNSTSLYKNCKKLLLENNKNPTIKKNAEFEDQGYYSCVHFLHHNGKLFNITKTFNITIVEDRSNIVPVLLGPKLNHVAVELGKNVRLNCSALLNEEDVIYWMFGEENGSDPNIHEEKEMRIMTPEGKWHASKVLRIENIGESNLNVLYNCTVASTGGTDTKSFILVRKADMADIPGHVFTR
T1 sequence (looked up) 2: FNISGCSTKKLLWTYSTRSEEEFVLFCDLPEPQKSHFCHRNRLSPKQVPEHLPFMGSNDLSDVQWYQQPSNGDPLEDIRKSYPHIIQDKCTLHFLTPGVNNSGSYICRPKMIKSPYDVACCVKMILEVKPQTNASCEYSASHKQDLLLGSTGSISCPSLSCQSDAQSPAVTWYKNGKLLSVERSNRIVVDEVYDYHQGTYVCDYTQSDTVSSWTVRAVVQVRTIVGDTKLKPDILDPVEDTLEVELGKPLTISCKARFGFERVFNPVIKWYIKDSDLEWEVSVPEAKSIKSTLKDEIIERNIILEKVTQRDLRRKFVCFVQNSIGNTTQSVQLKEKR
Method: (§1) The interaction of the wild type and of modified IL-18 polypeptides with human IL-18 receptor subunits are measured with Surface Plasmon Resonance (SPR) technology. Anti-human IgG antibodies are bound by amine coupling onto a CM5 chip to capture 6 µg/mL of Fc fused human IL-18Rα, […] of Fc fused human IL-18Rβ, or […] of Fc fused human IL-18BP isoform a (IL-18BPa) for 30 min before capture. In other settings, […] of alpha and beta IL-18 receptors are mixed and pre-incubated for 30 min before capture of the alpha/beta heterodimer IL-18 receptor.
(§2) The kinetic binding of the IL-18 analytes are measured with a Biacore 8K instrument in two fold serial dilutions starting at […] down to 0.98 nM. Regeneration of the surface back to amine coupled anti IgG antibody is done after every concentration of analyte. To measure the protein association to the receptors, the samples are injected with a flow rate of […] for 60 s, followed by 300 s buffer only to detect the dissociation. The used running buffer is 1×PBS with 0.05% Tween20. The relative response units (RU, Y-axis) are plotted against time (s, X-axis) and analyzed in a kinetic 1:1 binding model for the monomer receptor binding and for the binding to the IL-18BP. A kinetic heterogenous ligand fit model is applied for the alpha/beta heterodimer binding.

Fc fused human IL-18Rα = target: T2, Fc fused human IL-18Rα (human, UniProt Q13478 19-329, limits assumed); experiment: SPR, Fc-IL-18Rα captured, 1:1 fit
T2 construct: also called IL-18Rα monomer; human IL-18 receptor alpha (CD218a); not shown: Fc
T2 sequence (looked up): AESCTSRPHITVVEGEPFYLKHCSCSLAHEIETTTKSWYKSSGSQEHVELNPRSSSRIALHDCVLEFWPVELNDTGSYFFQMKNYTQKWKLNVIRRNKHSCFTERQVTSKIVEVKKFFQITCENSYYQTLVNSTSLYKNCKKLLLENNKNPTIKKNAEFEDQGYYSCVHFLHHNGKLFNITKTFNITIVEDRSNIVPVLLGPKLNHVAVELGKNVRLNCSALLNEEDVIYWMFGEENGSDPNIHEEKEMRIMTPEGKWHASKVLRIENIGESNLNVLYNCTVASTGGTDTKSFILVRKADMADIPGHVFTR
Method: as §1, §2

[2] = target: T3, IL-18 receptor (IL-18R) on HEK-Blue IL18R reporter cells (UniProt Q13478 19-541; O95256 20-599, limits assumed); experiment: cell-based or functional assay
T3 sequence (looked up) 1: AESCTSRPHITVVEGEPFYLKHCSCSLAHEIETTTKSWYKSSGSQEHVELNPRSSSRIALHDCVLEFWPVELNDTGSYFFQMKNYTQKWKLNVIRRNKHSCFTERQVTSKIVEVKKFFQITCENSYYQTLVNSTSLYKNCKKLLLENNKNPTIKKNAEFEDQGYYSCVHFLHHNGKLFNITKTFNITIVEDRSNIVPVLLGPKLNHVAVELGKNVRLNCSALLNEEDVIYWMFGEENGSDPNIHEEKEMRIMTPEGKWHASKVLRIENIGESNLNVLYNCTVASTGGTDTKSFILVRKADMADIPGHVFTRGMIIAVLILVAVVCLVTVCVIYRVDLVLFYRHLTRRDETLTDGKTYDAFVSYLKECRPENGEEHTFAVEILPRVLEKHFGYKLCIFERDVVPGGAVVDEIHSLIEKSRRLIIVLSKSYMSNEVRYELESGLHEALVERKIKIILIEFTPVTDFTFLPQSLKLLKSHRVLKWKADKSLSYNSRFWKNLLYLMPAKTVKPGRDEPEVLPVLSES
T3 sequence (looked up) 2: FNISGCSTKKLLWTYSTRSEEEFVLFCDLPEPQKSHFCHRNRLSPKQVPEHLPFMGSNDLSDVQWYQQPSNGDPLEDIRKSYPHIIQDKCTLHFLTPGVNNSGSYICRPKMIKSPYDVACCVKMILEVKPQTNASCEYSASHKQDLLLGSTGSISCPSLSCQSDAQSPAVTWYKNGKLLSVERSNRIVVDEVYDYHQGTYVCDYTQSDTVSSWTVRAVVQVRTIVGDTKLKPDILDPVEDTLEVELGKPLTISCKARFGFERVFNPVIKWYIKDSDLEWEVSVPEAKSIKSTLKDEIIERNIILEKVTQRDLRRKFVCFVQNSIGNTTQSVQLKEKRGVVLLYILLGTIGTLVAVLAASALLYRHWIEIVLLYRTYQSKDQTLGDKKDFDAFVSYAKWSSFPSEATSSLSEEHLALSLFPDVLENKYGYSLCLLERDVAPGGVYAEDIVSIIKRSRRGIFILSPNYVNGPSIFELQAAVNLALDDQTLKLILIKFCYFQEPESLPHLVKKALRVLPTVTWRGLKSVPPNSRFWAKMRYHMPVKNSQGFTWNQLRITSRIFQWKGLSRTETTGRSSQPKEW

[3] = target: T3, IL-18 receptor (IL-18R) on HEK-Blue …; experiment: cell-based or functional assay; remark: listed apart in the source

Row | Binder | Kd [1] | koff [1] | kon [1] | Kd (Fc fused human IL-18Rα) | koff (Fc fused human IL-18Rα) | kon (Fc fused human IL-18Rα) | EC50, HEK-Blue IL18R reporter [2] | EC50 (read off the curve); SEAP reporter in HEK-Blue IL18R cells (OD 620 nM) [3]
1 | IL-18 variant SEQ ID NO: 207 (V11I, C38A, M51G, K53A, C76A, C127A) (ligand) YFGKLESKLSIIRNLNDQVLFIDQGNRPLFEDMTDSDARDNAPRTIFIISGYADSQPRGMAVTISVKCEKISTLSAENKIISFKEMNPPDNIKDTKSDIIFFQRSVPGHDNKMQFESSSYEGYFLAAEKERDLFKLILKKEDELGDRSIMFTVQNED |  |  |  |  |  |  | 800 pM | ~4 pM
2 | IL-18 variant SEQ ID NO: 59 (E6K, C38A, K53A) (ligand) YFGKLKSKLSVIRNLNDQVLFIDQGNRPLFEDMTDSDARDNAPRTIFIISMYADSQPRGMAVTISVKCEKISTLSCENKIISFKEMNPPDNIKDTKSDIIFFQRSVPGHDNKMQFESSSYEGYFLACEKERDLFKLILKKEDELGDRSIMFTVQNED | 660 pM | 0.000815 s⁻¹ | 1.24e+06 M⁻¹ s⁻¹ | 17800 pM | 0.0165 s⁻¹ | 1.77e+06 M⁻¹ s⁻¹ | 268 pM | ~0.3 pM
3 | IL-18 variant SEQ ID NO: 241 (N-terminal 4xG, E6K, V11I, C38A, K53A, T63A, C76A, C127A) (ligand) GGGGYFGKLKSKLSIIRNLNDQVLFIDQGNRPLFEDMTDSDARDNAPRTIFIISMYADSQPRGMAVAISVKCEKISTLSAENKIISFKEMNPPDNIKDTKSDIIFFQRSVPGHDNKMQFESSSYEGYFLAAEKERDLFKLILKKEDELGDRSIMFTVQNED |  |  |  |  |  |  | 2500 pM | ~3 pM
4 | IL-18 variant SEQ ID NO: 242 (N-terminal G, E6K, V11I, C38A, K53A, T63A, C76A, C127A) (ligand) GYFGKLKSKLSIIRNLNDQVLFIDQGNRPLFEDMTDSDARDNAPRTIFIISMYADSQPRGMAVAISVKCEKISTLSAENKIISFKEMNPPDNIKDTKSDIIFFQRSVPGHDNKMQFESSSYEGYFLAAEKERDLFKLILKKEDELGDRSIMFTVQNED |  |  |  |  |  |  | 1680 pM | ~2 pM

Other lines, results leading:

Row | Kd [1] | koff [1] | kon [1] | Kd (Fc fused human IL-18Rα) | koff (Fc fused human IL-18Rα) | kon (Fc fused human IL-18Rα) | EC50, HEK-Blue IL18R reporter [2] | EC50 (read off the curve); SEAP reporter in HEK-Blue IL18R cells (OD 620 nM) [3] | Binder
5 | 490 pM | 0.000311 s⁻¹ | 866000 M⁻¹ s⁻¹ | 30300 pM | 0.0536 s⁻¹ | 1.77e+06 M⁻¹ s⁻¹ | 53 pM | ~0.05 pM | IL-18 variant SEQ ID NO: 30 (E6K, V11I, C38A, K53A, T63A, C76A, C127A) (ligand) YFGKLKSKLSIIRNLNDQVLFIDQGNRPLFEDMTDSDARDNAPRTIFIISMYADSQPRGMAVAISVKCEKISTLSAENKIISFKEMNPPDNIKDTKSDIIFFQRSVPGHDNKMQFESSSYEGYFLAAEKERDLFKLILKKEDELGDRSIMFTVQNED
6 |  |  |  |  |  |  | 100 pM | ~0.1 pM | IL-18 variant SEQ ID NO: 239 (E6K, V11I, C38A, M51G, K53A, T63A, C76A, C127A) (ligand) YFGKLKSKLSIIRNLNDQVLFIDQGNRPLFEDMTDSDARDNAPRTIFIISGYADSQPRGMAVAISVKCEKISTLSAENKIISFKEMNPPDNIKDTKSDIIFFQRSVPGHDNKMQFESSSYEGYFLAAEKERDLFKLILKKEDELGDRSIMFTVQNED
7 | 410 pM | 0.000467 s⁻¹ | 1.15e+06 M⁻¹ s⁻¹ | 42200 pM | 0.976 s⁻¹ | 2.31e+07 M⁻¹ s⁻¹ | 13.9 pM |  | IL-18 variant SEQ ID NO: 63 (E6K, C38A, K53A, C76A, C127A) (ligand) YFGKLKSKLSVIRNLNDQVLFIDQGNRPLFEDMTDSDARDNAPRTIFIISMYADSQPRGMAVTISVKCEKISTLSAENKIISFKEMNPPDNIKDTKSDIIFFQRSVPGHDNKMQFESSSYEGYFLAAEKERDLFKLILKKEDELGDRSIMFTVQNED
8 |  |  |  |  |  |  | 14000 pM | ~10 pM | IL-18 variant SEQ ID NO: 244 (N-terminal G, E6K, V11I, C38A, M51G, K53A, T63A, C76A, C127A) (ligand) GYFGKLKSKLSIIRNLNDQVLFIDQGNRPLFEDMTDSDARDNAPRTIFIISGYADSQPRGMAVAISVKCEKISTLSAENKIISFKEMNPPDNIKDTKSDIIFFQRSVPGHDNKMQFESSSYEGYFLAAEKERDLFKLILKKEDELGDRSIMFTVQNED
